Source: patent publication US20220119521A1 (Pfizer, published 2022)

T1: chimeric cynomolgus/human MAdCAM (cynomolgus; human, UniProt Q13477 226-382, limits assumed)
T1 sequence: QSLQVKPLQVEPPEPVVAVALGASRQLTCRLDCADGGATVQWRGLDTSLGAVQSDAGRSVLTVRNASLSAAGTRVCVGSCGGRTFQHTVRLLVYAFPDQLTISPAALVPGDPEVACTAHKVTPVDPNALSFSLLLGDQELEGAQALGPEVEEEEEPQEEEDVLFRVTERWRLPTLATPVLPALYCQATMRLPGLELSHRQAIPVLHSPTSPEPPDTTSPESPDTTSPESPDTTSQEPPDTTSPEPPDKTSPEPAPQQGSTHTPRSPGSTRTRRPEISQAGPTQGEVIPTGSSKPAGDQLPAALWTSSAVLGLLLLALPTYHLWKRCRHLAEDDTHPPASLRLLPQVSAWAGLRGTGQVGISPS


Each binder was assayed against MAdCAM-IgG1 Fc fusion protein (human) (assay: cell-based or functional assay).

Row | Mean IC50, α4β7+ JY cell adhesion to coated MAdCAM IgG1 Fc fusion [µg/mL] | Binder
1 | 0.03 | anti-MAdCAM monoclonal antibody 1.7.2 (antibody, human IgG2, kappa, V domains shown) VH: EVQLVESGGGLVKPGGSLRLSCVASGFTFTNAWMIWVRQAPGKGLEWVGRIKRKTDGGTTDYAAPVKGRFTISRDDSKNTLYLQMNSLKTEDTAVYYCTTGGVAEDYWGQGTLVTVSS VL: not shown
2 | 0.027 | anti-MAdCAM monoclonal antibody 1.8.2 (antibody, human IgG2, kappa, V domains shown) VH: EVQLVESGGGLVKPGGSLRLSCVVSGFTFTNAWMIWVRQAPGKGLEWVGRIKRKTDGGTTDYAAPVKGRFTISRDDSKNTLYLQMNSLKTEDTAVYYCTTGGVAEDYWGQGTLVTVSS VL: not shown
3 | 0.021 | anti-MAdCAM monoclonal antibody 7.26.4 (antibody, human IgG2, kappa, V domains shown) VH: QVQLVQSGAEVKKPGASVKVSCEASGYTFTSYGIDWVRQAPGQGLEWMGWISVYSGNTNYAQKLQGRVTMSTDTSTSTAYMELRSLRSDDTAVYYCAREGSSSSGDYYYGMDVWGQGTTVTVSS VL: DIVMTQTPLSLSVTPGQPASISCKSNQSLLYSDGKTYLFWYLQKPGQPPQLLIYEVSNRFSGVPDRFSGSGSGTDFTLKISRVEAEDVGVYYCMQSIQLPWTFGQGTKVEIKR
4 | 0.025 | anti-MAdCAM monoclonal antibody 7.20.5 (antibody, human IgG2, kappa, V domains shown) VH: QVQLQESGPGLVKPSETLSLTCTVSGSSISSYHWNWIRQPAGKGLEWIGRIYTSGSTNYNPSLKSRVTMSLDTSKNQFSLKLSSVTAADTAVYYCAREGVRYYYASGSYYYGLDVWGQGTTVTVSS VL: not shown

These binders were tested against T1, chimeric cynomolgus/human MAdCAM (assay: cell-based or functional assay).

Row | Binder | Functional IC50 (µg/mL), cynomolgus/human MAdCAM-CHO/JY adhesion assay [µg/mL]
5 | anti-MAdCAM monoclonal antibody 6.77.1 (antibody, human IgG4, kappa, V domains shown) VH: EVQLVESGGGLVKPGGSLRLSCAASGFTFSSYSMNWVRQAPGKGLEWVSSISSSSSYIYYADSVKGRFTISRDNAKNSLYLQMNSLRAEDTAVYYCARDGYSSGWSYYYYYGMDVWGQGTTVTVSS VL: DIVMTQTPLSLSVTPGQPASISCNSSQSLLLSDGKTYLNWYLQKPGQPPQLLIYEVSNRFSGVPDRFSGSGSGTDFTLKISRVEAEDVGVYSCMQSIQLMCSFGQGTKLEIKR | 0.64
6 | anti-MAdCAM monoclonal antibody 7.20.5 (antibody, human IgG2, kappa, V domains shown) VH: QVQLQESGPGLVKPSETLSLTCTVSGSSISSYHWNWIRQPAGKGLEWIGRIYTSGSTNYNPSLKSRVTMSLDTSKNQFSLKLSSVTAADTAVYYCAREGVRYYYASGSYYYGLDVWGQGTTVTVSS VL: not shown | 0.62
7 | anti-MAdCAM monoclonal antibody 6.34.2 (antibody, human IgG4, kappa, V domains shown) VH: QVQLVESGGGVVQPGRSLRLSCAASGFTFSSYGMHWVRQAPGKGLEWVAVISNDGNNKYYADSVKGRFTISRDNSKNTLYLQMNSLSAEDTAVYYCARDSTAITYYYYGMDVWGQGTTVTVSS VL: DIQMTQSPSSLSASVGDRVTITCRASQNISSYLNWFQQKPGKAPKLLIYAASGLKRGVPSRFSGSGSGTDFTLTIRTLQPDDFATYSCHQSYSLPFTFGPGTKVDIKR | 0.47

Continued, values first:

Row | Functional IC50 (µg/mL), cynomolgus/human MAdCAM-CHO/JY adhesion assay [µg/mL] | Binder
8 | 0.75 | anti-MAdCAM monoclonal antibody 6.67.1 (antibody, human IgG4, kappa, V domains shown) VH: QVQLQESGPGLVKPSETLSLTCTVSGDSISSNYWSWIRQPAGKGLEWIGRIYTSGGTNSNPSLRGRVTILADTSKNQFSLKLSSVTAADTAVYYCARDRITIIRGLIPSFFDYWGQGTLVTVSS VL: not shown
9 | 0.96 | anti-MAdCAM monoclonal antibody 7.26.4 (antibody, human IgG2, kappa, V domains shown) VH: QVQLVQSGAEVKKPGASVKVSCEASGYTFTSYGIDWVRQAPGQGLEWMGWISVYSGNTNYAQKLQGRVTMSTDTSTSTAYMELRSLRSDDTAVYYCAREGSSSSGDYYYGMDVWGQGTTVTVSS VL: DIVMTQTPLSLSVTPGQPASISCKSNQSLLYSDGKTYLFWYLQKPGQPPQLLIYEVSNRFSGVPDRFSGSGSGTDFTLKISRVEAEDVGVYYCMQSIQLPWTFGQGTKVEIKR
10 | 0.83 | anti-MAdCAM monoclonal antibody 6.22.2 (antibody, human IgG4, kappa, V domains shown) VH: QVQLVESGGGVVQPGRSLRLSCAASGHTFSSDGMHWVRQAPGKGLEWVAIIWYDGSNKYYADSVKGRFTISRDNSKNTLYLQMNSLRAEDTAVYYCARDPGYYYGMDVWGQGTTVTVSS VL: EIVLTQSPDFQSVTPKEKVTITCRASQRIGSSLHWYQQKPDQSPKLLIKYASQSFSGVPSRFSGSGSGTNFTLTINGLEAEDAATYYCHQSGRLPLTFGGGTKVEIKR
11 | 0.83 | anti-MAdCAM monoclonal antibody 9.8.2 (antibody, human IgG4, kappa, V domains shown) VH: QVQLVESGGGVVQPGRSLRLSCAASGFTFSSYGMHWVRQAPGKGLEWVAVIWYDGSNEYYADSVKGRFTISRDNSKNTLYLQMNSLRAEDTAVYYCARGAYHFAYWGQGTLVTVSS VL: DIQMTQSPSSLSASVGDRVTITCQASQDISNYLNWYQQKPGKAPKLLIYDASNLETGVPSRFSGSGSGTDFTFTISSLQPEDIATYSCQHSDNLSITFGQGTRLEIKR
12 | 0.53 | anti-MAdCAM monoclonal antibody 6.14.2 (antibody, human IgG4, kappa, V domains shown) VH: EVQLLESGGGLVQPGGSLRLSCAASGLTFNNSAMTWVRQAPGKGLEWVSTTSGSGGTTYYADSVKGRFTISRDSPKNTLYLQMNSLRAEDTAVYYCAARGYSYGTTPYEYWGQGTLVTVSS VL: DIQMTQSPSSLSASVGDRVTITCRASRSISSYLNWYQQKPGKAPKVLIFFVSSLQSGVPSRFSGSGSGTDFTLTISSLQPEDFATYYCQQNYIPPITFGQGTRLEIRR
